Read-outs that look alike come from different tables or passages of the source.
What was measured:
Assay in all cases: EMSA
[1] = molecular target: T1, RecQ helicase (Escherichia coli, UniProt P15043 1-609)
[2] = molecular target: T1, RecQ helicase; remark: listed apart in the source
[3] = molecular target: T1, RecQ helicase; remark: listed apart in the source

T1 sequence (P15043 whole entry): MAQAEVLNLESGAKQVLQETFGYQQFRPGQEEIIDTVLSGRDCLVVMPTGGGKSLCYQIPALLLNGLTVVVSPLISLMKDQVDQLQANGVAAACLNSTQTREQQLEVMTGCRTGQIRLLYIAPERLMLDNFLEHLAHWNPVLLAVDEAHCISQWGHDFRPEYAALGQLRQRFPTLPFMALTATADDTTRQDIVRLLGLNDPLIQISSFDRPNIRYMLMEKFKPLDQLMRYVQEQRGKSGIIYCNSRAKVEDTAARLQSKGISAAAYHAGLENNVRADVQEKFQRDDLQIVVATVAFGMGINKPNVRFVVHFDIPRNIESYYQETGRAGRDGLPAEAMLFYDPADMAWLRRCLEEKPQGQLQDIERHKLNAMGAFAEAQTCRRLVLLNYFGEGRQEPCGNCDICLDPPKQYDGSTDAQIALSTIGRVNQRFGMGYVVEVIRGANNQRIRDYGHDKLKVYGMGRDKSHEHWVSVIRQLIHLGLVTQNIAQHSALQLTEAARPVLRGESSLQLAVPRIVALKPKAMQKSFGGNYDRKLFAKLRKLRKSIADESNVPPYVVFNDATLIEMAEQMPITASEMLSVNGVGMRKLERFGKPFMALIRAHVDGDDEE

Row | Binder | binding result [1] | Kd [2] | Kd [3]
1 | TTTTTT (ssDNA) [dT6] | no binding | – | –
2 | TTTTTTTTTTTTTTTTTTTTTTTTT (ssDNA) [dT25] | – | 400 ± 60 nM | 1000 ± 100 nM
3 | dT52 (ssDNA) DNA: TTTTTTTTTTTTTTTTTTTTTTTTTTTTTTTTTTTTTTTTTTTTTTTTTTTT | – | 150 ± 20 nM | 170 ± 10 nM

Reference: article PMC3330151
